Residue numbers refer to the chain shown, from its start.
B1: FL-51 scFv (scFv)
scFv: QVTLKESGPTLVKPTETLTLTCTVSGFSLRNVRMGVSWIRQPPGKCLEWLAHISSNDEKSYSTSLRSRLTISTDTSKSQVVLTMTNMDPVDTATYYCARMPGDSNTWRGFFDYWGQGTLVTVSSGGGGSGGGGSGGGGSEIVMTQSPATLSVSPGERATLSCRTSQSVNNNLAWYQQKPGQAPRLLIYGASTRATGIPARFSGSGSGTEFTLTISSLQPEDFATYYCLQHNSYPLTFGCGTKVEIK
notes: periplasmic prep
B2: FL-58 scFv (scFv)
scFv: B1 scFv with C46A, C239G
notes: periplasmic prep
B3: FL-9 scFv (scFv)
scFv: QVTLKESGPTLVKPTETLTLTCTVSGFSLSNARMGVSWIRQPPGKALEWLAHIFSNDEKSYSTSLKSRLTISKDTSKSQVVLTMTNMDPVDTATYYCARIPGYGGNFYYHYYGMDVWGQGTTVTVSSGGGGSGGGGSGGGGSDIQMTQSPSSLSASVGDRVTITCRASQGIRNDLAWYQQKPGKAPKRLIYAASTVQSGVPSRFSGSGSGTEFALTISSLQPEDFATYYCLQHNSFPWTFGQGTKVDIK
notes: periplasmic prep
B4: FL-50 scFv (scFv)
scFv: B3 scFv with A46C, Q242C
notes: periplasmic prep
B5: FL-21 scFv (scFv)
scFv: QVTLKESGPALVKPTETLTLTCTFSGFSLSNARMGVSWIRQPPGKALEWLAHIFSNDEKSYSTSLKSRLTISKDTSKSQVVLTMTNMDPVDTATYYCARIPGYGGNFYYHYYGMDVWGQGTTVTVSSGGGGSGGGGSGGGGSDIQMTQSPSSLSASVGDRVTITCRTSRGIRNDLGWYQQIPGRAPKRLIYAASTLQSGVPSRFSGSGSGTEFTLTISSLQPEDFATYYCLQHNNFPWTFGQGTKVEIK
notes: periplasmic prep
B6: FL-47 scFv (scFv)
scFv: QVTLKESGPALVKPTQTLTLTCTFSGFSLSNARMGVSWIRQPPGKCLEWLAHIFSNDEKSYSTSLKSRLTISKDTSKSQVVLTMTDMDPEDTATYYCARIVGYGTGWYGFFDYWGQGILVTVSSGGGGSGGGGSGGGGSDIQMTQSPSSLSASVGDRVTITCRTSQGIRNDLGWYQQKPGKAPKRLIYAASSLQSGVPSRFSGSGSGTEFTLTISSLQPEDFATYYCLQHNSYPLTFGCGTKVEIK
notes: periplasmic prep
B7: FL-13 scFv (scFv)
scFv: QVTLKESGPTLVKPTETLTLTCTLSGFSLNNARMGVSWIRQPPGKALEWLAHIFSNDEKSYSTSLKNRLTISKDSSKTQVVLTMTNVDPVDTATYYCARIVGYGSGWYGFFDYWGQGTLVTVSSGGGGSGGGGSGGGGSDIQMTQSPSSLSASVGDRVTITCRASQGIRNDLGWYQQKPGKAPKRLIYAASTLQSGVPSRFSGSGSGTEFTLTISSLQPEDFATYYCLQHNSYPLTFGGGTKVEIK
notes: periplasmic prep
B8: FL-45 scFv (scFv)
scFv: B6 scFv with S62R, D86N, E90V, T105S, G109A, F110Y, I118T, T164A
notes: periplasmic prep
B9: FL-42 scFv (scFv)
scFv: B6 scFv with Q16E, F24L, S30N, G35A, D86N, T164A, G173A
notes: periplasmic prep
B10: FL-29 scFv (scFv)
scFv: B6 scFv with C46A, S62R, D86N, E90V, T105S, G109A, F110Y, I118T, T164A, C239G
notes: periplasmic prep
B11: FL-15 scFv (scFv)
scFv: QVTLKESGPALVKPTETLTLTCTLSGFSLNNARMAVSWIRQPPGKTLEWLAHIFSNDEKSYSTSLKSRLTISKDTSKGQVVLTMTNMDPVDTATYYCARIVGYGSGWYGYFDYWGQGTLVTVSSGGGGSGGGGSGGGGSDIQMTQSPSSLSASVGDRVTITCRASQDIGNDLGWYQQKPGKAPKRLIYAASSLQSGVPSRFSGSGSGTEFTLTISSLQPEDFATYYCLQHNSYPLTFGGGTKVEIK
notes: periplasmic prep
B12: FL-20 scFv (scFv)
scFv: B11 scFv with G78S, V90E, S105T, Y110F, T118I, D167G, G169R, G173A
notes: periplasmic prep
B13: FL-16 scFv (scFv)
scFv: B11 scFv with A10V, L24V, N30R, G78S, L150V, G169R, N170Y, G173A, S232F
notes: periplasmic prep
B14: FL-33 scFv (scFv)
scFv: B11 scFv with A10V, L24V, N30R, A35G, D167G, N170D, K178I, A190T, S192V, V243L
notes: periplasmic prep
B15: FL-39 scFv (scFv)
scFv: B7 scFv with A46C, G239C
notes: periplasmic prep
B16: FL-32 scFv (scFv)
scFv: QVTLKESGPTLVKPTETLTLTCTVSGFSFRNARMGVSWIRQPPGKALEWLAHIFSNDEKSYSTSLKSRLTISKDTSKGQVVLTMTNMDPVDTATYYCARIVGYGSGWYGYFDYWGQGTLVTVSSGGGGSGGGGSGGGGSDIQMTQSPSSLSASVGDRVTITCRASQGIRNDLVWYQQKPGKAPKRLIYAASTLQSGVPSRFSGSGSGTEFILTISSLQPEDFATYFCLQHYSYPLTFGGGTKLEIK
notes: periplasmic prep
B17: FL-63 scFv (scFv)
scFv: QVQLVESGGGVVQPGRSLRLSCAASGFTFSSYGMHWVRQAPGKGLEWVAVISYDGSNEFYADSVKGRFTISRDNSKNTLYLQMNSLRAEDTAVYYCARGGEITMVRGVIGYYYYGMDVWGQGTTVTVSSGGGGSGGGGSGGGGSDIQMTQSPSSLSASVGDRVTITCRTSQSISSYLNWYQQKPGKAPKLLIYAASSLQSGVPSRFSGSGSGTEFTLTISSLQPEDFATYYCLQHNSYPLTFGGGTKVDIK
notes: periplasmic prep
B18: FL-53 scFv (scFv)
scFv: B17 scFv with G44C, G244C
notes: periplasmic prep
B19: FL-61 scFv (scFv)
scFv: B17 scFv with T169A, D249E
notes: periplasmic prep
B20: FL-5 scFv (scFv)
scFv: QVTLKESGPMLVKPTETLTLTCTFSGFSLRNARMGVSWIRQPPGKALEWLAHIFWNDEKSYSTSLKSRLTISKDTSKSQVVLTMTNMDPVDTATYYCARIPYYGSGSYNYGMDVWGQGTTVTVSSGGGGSGGGGSGGGGSDIQMTQSPSSLSASVGDRVTITCRASQGIRNDLGWYQQKPGKAPKRLIYAASSLQSGVPSRFSGSGSGTEFTLTISSLQPEDFATYYCLQHNTYPLTFGGGTKVDIK
notes: periplasmic prep
B21: FL-48 scFv (scFv)
scFv: B20 scFv with A46C, G240C
notes: periplasmic prep
B22: FL-34 scFv (scFv)
scFv: B20 scFv with M10A, T233S, V244L, D245E
notes: periplasmic prep
B23: FL-49 scFv (scFv)
scFv: QVTLKESGPTLVKPTETLTLTCTVSGFSLNNARMGVSWIRQPPGKCLEWLAHIFSNDEKSYSTSLKNRLTISKDSSKTQVVLTMTNVDPVDTATYYCARIVGYGTGWFGYFDYWGQGTQVTVSSGGGGSGGGGSGGGGSDIQMTQSPSSLSASVGDRVTITCRASQDIRTDLAWYQQKPGKAPKRLIYAASSLQSGVPSRFSGSGSGTEFTLTISSLQPEDFATYYCLQHNRYPLTFGCGTKVDIK
notes: periplasmic prep
B24: FL-46 scFv (scFv)
scFv: QVTLKESGPVLVKPTQTLTLTCTFSGFSLSNARMGVSWIRQPPGKCLEWLALIYWNDDKRYSPSLKSRLTITKDTSKNQVVLTMTNMDPVDTATYYCARMVGYGSGWYAYFDYWGQGTLVTVSSGGGGSGGGGSGGGGSDIQMTQSPSSLSASVGDRVTITCRASQGIRNDLGWYQQKPGKAPKRLIYAASSLQSGVPSRFSGSGSGTEFTLTISSLQPEDFATYYCLQHNSYPLTFGCGTKVEIK
notes: periplasmic prep

molecular target: T1, human FLT3 (human, UniProt P36888 27-993); assay: FACS, scFv on CHO-human FLT3 pre-incubated with FLT3 ligand (competitor)
T1 construct: On transfected CHO cells, or on the FLT3 positive human AML cell lines EOL-1 / MV4-11 where the row says so; also called hu FLT3; full length human FLT3
Procedure: The detection was performed using mouse anti-FLAG+PE-conjugated goat anti-mouse and the Fluorescence median detected by FACS (median (+ligand)/median (w/o ligand)*100%)
Afterwards cells were not washed but directly stained with FLT3 binder (scFv's). […] As negative control, cells were incubated with an unspecific scFv instead of FLT3 scFv.
For the evaluation of the data, the fluorescence median was detected by FACS.

median [+ligand]/median [w/o ligand]*100	Binder
≥ 75%	B1
≥ 75%	B2
≥ 75%	B3
≥ 75%	B4
≥ 75%	B5
≥ 75%	B6
≥ 75%	B7
≥ 75%	B8
≥ 75%	B9
≥ 75%	B10
≥ 75%	B11
≥ 75%	B12
≥ 75%	B13
≥ 75%	B14
≥ 75%	B15
≥ 75%	B16
≥ 75%	B17
≥ 75%	B18
≥ 75%	B19
≥ 75%	B20
≥ 75%	B21
≥ 75%	B22
≥ 75%	B23
≥ 75%	B24

Source: patent publication US20170037149A1 (Amgen, published 2017)
